Blank lines part the entries; values can stand above or below the substance they belong to.
How the values were obtained:
[1] = target: extended PPP1R15A^325-636, wild type (bacterially expressed) (human) (UniProt O75807)
[2] = target: fluorescein-labeled peptide corresponding to repeat 3 (PPP1R15A^420-466), wild type (human) (UniProt O75807); test: fluorescence polarisation; 5 µL 100 nM fluorescein-labeled peptide probe mixed with 5 µL of increasing concentrations of eIF2 trimer or eIF2α-NTD; 20 mM Tris pH 7.4, 0.1 M NaCl, 1 mM TCEP, 0.01% Triton X-100; one-site binding fit; three experiments
Sequence of fluorescein-labeled peptide corresponding to repeat 3 (PPP1R15A^420-466), wild type (human) (O75807 420-466): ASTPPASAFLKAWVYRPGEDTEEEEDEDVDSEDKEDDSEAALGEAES

[3] = target: eIF2 trimer, endogenous (detected by its α subunit), P05198;P20042;P41091; test: GFP immunoprecipitation (co-IP) and immunoblot, quantified; conditions: HEK293T cells; 20% (v/v) of immunoprecipitation fractions analyzed; parent: est. 0.14; read off a plot

Sequence of extended PPP1R15A^325-636, wild type (bacterially expressed) (human) (O75807 325-636): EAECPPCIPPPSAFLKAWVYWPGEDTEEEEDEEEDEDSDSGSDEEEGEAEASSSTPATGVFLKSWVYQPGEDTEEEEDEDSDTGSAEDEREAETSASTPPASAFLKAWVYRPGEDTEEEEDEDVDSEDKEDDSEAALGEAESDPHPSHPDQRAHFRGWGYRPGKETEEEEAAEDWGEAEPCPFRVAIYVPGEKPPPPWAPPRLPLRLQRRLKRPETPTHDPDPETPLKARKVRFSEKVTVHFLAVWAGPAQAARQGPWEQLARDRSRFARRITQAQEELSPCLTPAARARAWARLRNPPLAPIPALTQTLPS
Sequence of eIF2^P trimer (phosphorylated eIF2) (P05198 whole entry): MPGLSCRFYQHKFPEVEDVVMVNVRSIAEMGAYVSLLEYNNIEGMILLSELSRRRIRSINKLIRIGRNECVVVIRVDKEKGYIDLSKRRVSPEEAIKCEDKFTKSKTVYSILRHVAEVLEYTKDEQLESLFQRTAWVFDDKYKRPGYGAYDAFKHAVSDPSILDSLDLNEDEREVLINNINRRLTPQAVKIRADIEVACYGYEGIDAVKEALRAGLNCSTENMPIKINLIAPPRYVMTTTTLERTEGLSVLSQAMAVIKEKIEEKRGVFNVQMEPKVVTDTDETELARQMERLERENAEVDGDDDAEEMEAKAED
Sequence of eIF2^P trimer (phosphorylated eIF2) (P20042 whole entry): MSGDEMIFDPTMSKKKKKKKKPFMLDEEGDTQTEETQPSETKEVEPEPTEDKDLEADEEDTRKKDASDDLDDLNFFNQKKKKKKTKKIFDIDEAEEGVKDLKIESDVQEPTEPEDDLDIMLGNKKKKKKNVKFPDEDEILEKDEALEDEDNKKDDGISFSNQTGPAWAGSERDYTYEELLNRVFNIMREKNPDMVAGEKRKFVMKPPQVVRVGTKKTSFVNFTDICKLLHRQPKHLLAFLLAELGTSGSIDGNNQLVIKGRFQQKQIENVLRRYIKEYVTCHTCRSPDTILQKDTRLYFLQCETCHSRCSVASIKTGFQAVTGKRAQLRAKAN
Sequence of eIF2^P trimer (phosphorylated eIF2) (P41091 whole entry): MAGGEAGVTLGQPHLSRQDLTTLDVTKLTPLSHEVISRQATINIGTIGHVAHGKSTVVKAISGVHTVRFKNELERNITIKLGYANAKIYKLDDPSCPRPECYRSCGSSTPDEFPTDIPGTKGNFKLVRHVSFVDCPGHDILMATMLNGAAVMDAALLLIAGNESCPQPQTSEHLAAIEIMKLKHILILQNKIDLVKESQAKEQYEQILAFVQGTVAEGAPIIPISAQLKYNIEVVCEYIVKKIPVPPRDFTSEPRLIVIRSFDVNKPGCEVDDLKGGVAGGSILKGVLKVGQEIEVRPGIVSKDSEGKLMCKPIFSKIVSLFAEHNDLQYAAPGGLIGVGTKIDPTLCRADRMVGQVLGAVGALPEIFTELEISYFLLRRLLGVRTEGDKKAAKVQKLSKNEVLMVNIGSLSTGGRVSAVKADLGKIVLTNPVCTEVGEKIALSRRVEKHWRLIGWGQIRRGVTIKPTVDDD
Sequence of eIF2 trimer (recombinant, not phosphorylated) (P05198 whole entry): as the sequence (P05198 whole entry) above
Sequence of eIF2 trimer (recombinant, not phosphorylated) (P20042 whole entry): as the sequence (P20042 whole entry) above
Sequence of eIF2 trimer (recombinant, not phosphorylated) (P41091 whole entry): as the sequence (P41091 whole entry) above
Sequence of full-length human PPP1R15A-GFP fusion protein, wild type (O75807 whole entry, stated change not applied, the tested form may be a part): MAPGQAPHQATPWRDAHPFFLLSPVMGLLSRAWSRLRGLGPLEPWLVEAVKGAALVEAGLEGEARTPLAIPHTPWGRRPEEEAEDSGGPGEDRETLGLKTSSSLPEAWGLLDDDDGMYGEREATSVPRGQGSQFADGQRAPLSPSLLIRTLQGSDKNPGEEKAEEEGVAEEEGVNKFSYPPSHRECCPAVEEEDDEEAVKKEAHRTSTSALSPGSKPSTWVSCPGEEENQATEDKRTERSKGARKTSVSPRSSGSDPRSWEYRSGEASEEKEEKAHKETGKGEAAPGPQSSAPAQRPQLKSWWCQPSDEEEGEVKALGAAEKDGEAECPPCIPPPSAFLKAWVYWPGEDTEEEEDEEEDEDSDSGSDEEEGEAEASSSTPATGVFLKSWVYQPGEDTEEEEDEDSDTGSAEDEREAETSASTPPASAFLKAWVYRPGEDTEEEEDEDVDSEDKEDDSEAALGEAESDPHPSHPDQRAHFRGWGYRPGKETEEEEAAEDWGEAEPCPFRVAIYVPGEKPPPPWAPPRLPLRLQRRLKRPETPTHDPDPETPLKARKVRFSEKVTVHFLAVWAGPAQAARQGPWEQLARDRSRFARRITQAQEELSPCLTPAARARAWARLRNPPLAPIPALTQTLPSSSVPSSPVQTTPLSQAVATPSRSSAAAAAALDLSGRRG

dephosphorylation of the eIF2^P trimer in vitro (PhosTag SDS-PAGE, kcat/Km) by the extended PPP1R15A^325-636-PP1-G-actin holophosphatase against the core PPP1R15A^533-624-PP1-G-actin holophosphatase (fold (kcat/Km)) [1]: 10
Substance: eIF2^P trimer (phosphorylated eIF2) (from UniProt P05198 1-315; P20042 1-333; P41091 1-472) (complex)

K (1/2max) [2]: 220 nM
Substance: eIF2 trimer (recombinant, not phosphorylated) (from UniProt P05198 1-315; P20042 1-333; P41091 1-472) (complex)

other: eIF2α/PP1 signal ratio [3]: 0.0084
Substance: full-length human PPP1R15A-GFP fusion protein, wild type (from UniProt O75807) F338A; W342A; F386A; W389A; F428A; W432A; F479A; W482A

From PMC10998612
